The target of assay [1] is T1, human BDCA2 (human, UniProt Q8WTT0 1-213).
T1 sequence (looked up): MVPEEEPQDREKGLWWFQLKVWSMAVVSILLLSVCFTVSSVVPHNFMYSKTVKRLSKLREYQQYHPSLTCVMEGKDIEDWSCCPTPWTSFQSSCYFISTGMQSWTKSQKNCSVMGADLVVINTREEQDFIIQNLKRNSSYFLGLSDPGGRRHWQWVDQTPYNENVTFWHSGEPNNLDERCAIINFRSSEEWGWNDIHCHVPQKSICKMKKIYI
Description: cell-based or functional assay.

The target in assay [2] is T1, human BDCA2. Description: FACS on CHOK1-hBDCA2 cells; EC50 table under the plot, unit from the x axis (nM) [continued) d.]. The method, then:
(§1) The cells were recovered and resuspended to 2×10⁶/mL with FACS buffer (PBS+2% FBS). The cells were added to 3799 cell plates (Corning) at 100 μL/well, and the supernatant was discarded after centrifugation at 300 g. The antibodies were serially diluted with FACS buffer (Id.), the diluted antibodies were added to centrifuged cells and the cells were resuspended. The cells were incubated at 4° C. for 1 h. The incubated cells were then centrifuged at […] for 5 min and washed twice with FACS buffer. 100 μL Donkey anti-Mouse IgG (H+L) Highly Cross-Adsorbed Secondary Antibody-Alexa Fluor 488 (Invitrogen, A21202; 1:1000) secondary antibody was added to the cells, which were washed twice with FACS buffer after incubation at 4° C. for 1 h, resuspended with PBS, analyzed with FACS (BD FACS CantoTM II) instrument. The curve was fitted with GraphPad Prism6, and EC₅₀ values were calculated.

The target in assay [3] is T2, cynomolgus BDCA2 (cynomolgus monkey, UniProt A0A2K5UWP4 1-212).
T2 construct: whole, on cells; also called Cyno BDCA2; cynoBDCA2
T2 sequence: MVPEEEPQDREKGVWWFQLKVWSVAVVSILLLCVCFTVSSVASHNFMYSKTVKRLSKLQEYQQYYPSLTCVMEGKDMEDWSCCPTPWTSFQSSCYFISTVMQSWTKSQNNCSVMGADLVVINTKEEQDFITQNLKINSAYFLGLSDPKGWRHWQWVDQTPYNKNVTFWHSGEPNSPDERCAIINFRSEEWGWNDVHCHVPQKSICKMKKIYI
Put plainly: FACS on 293F-cynoBDCA2 cells; EC50 table under the plot, unit from the x axis (nM) [continued) d.]. The procedure:
as §1

The target in assay [4] is T1, human BDCA2. Put plainly: cell-based or functional assay. This is another data set of the same source.
For assay [5], the target named is T2, cynomolgus BDCA2. Put plainly: FACS, 293F-cynoBDCA2 cells. The method, then:
(§2) The cells were recovered and resuspended to 2×10⁶/mL with FACS buffer (PBS+2% FBS). The resuspended cells were added to 3799 cell plates at 100 μL/well, and the supernatant was discarded after centrifugation at 300 g. […] The cells were incubated at 4° C. for 1 h. The incubated cells were centrifuged at […] for 5 min and washed twice with FACS buffer. 100 μL Goat anti-Human IgG (H+L) Cross-Adsorbed Secondary Antibody, Alexa Fluor 488 (Sigma, A11013; 1:1000) secondary antibody was added, washed twice with FACS buffer after incubation at 4° C. for 1 h. The cells were resuspended with PBS, then the fluorescence signal of antibodies bound to cell surface was analyzed with FACS (BD FACS CantoTM II) instrument and curves were fitted with GraphPad Prism6 to calculate EC₅₀ values for antibodies binding to BDCA2 antigen.

In assay [6] the target is T1, human BDCA2. Description: FACS, CHOK1-humanBDCA2 cells. The method, then:
as §2

The target of a further assay is T3, Recombinant Human BDCA2 (human, UniProt Q8WTT0 45-213, limits assumed).
T3 construct: also called hBDCA2 (SPR analyte); human BDCA2 antigen
T3 sequence (looked up): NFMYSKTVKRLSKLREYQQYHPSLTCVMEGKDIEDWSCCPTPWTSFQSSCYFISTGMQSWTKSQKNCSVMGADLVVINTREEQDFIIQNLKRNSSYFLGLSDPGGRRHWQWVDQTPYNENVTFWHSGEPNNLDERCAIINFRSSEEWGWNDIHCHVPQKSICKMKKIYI
Put plainly: SPR (BIAcore), antibody captured by anti-human IgG (Fc), hBDCA2 as analyte, 1:1 model. The procedure:
Then 1 M ethanolamine was injected at 10 μL/min flow rate for 420 seconds, and the excess active carboxyl groups on chip were blocked. The humanized antibodies were injected into a detection channel flow cell at flow rate of 10 μL/min for 60 s for capture after diluting to 1 μg/mL using running buffer. […] The sample hBDCA2 to be tested of each concentration gradient was injected into the detection channel at 30 μL/min flow rate, two samples at 0 concentration were used to remove background signal. The binding and dissociation times between antigen and antibody were 180 and 400 sec, respectively. An analysis of data was performed using Biacore Insight Evaluation Software (Version 2.0. 15.12933). A 1:1 binding model was selected for curve fitting and kinetic parameters were calculated after subtraction of signal of the reference channel (flow cell 1) and at 0 concentration.

The next assay deals with T4, human FcγRIIA (H167) (human, UniProt P12318 36-218, limits assumed, biotinylated (site not stated)).
T4 construct: also called Fey RIIA (H167)
T4 sequence (looked up): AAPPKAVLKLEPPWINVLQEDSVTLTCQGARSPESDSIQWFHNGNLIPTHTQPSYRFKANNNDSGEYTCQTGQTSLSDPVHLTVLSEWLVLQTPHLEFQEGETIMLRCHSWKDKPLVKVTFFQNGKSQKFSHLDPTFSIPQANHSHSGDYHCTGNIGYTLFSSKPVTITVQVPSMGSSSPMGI
Description: SPR (BIAcore 8K), biotinylated FcγRIIA (H167) on SA chip, antibody as analyte, 1:1 binding. The method, then: (§3) Antibody kinetics or affinity parameters were measured using BIAcore 8K and freshly fixed biotinylated human Fe γ RIIA(R167)/Fc γ RIIA (H167) SA chips. The experiment was run at 25° C. with a running buffer of 1×HBS-EP+(10 mM HEPES pH 7.4, 150 mM NaCl, 3 mM EDTA, 0.05% Surfactant P20). […] The binding and dissociation times of the antibody were 60 and 90 seconds, respectively. Two zero concentration samples are used to remove background signals. The sample was injected in a multi cycle manner, the analyte can be fully dissociated from the chip surface at the end of each cycle, and no regeneration step was applied. Data analysis was perform using Biacore Insight Evaluation Software (Version 2.0.15.12933). After deducting the reference channel (flow cell 1) and two zero concentration signals, affinity analysis was performed using a 1:1 binding model or steady-state model for curve fitting and calculation of kinetic parameters.

Another assay concerns the target T5, human FcγRIIA (R167) (human, UniProt P12318 36-218, limits assumed, biotinylated (site not stated)).
T5 construct: also called Fe γ RIIA(R167); Fcγ RIJA (R167)
T5 sequence (looked up): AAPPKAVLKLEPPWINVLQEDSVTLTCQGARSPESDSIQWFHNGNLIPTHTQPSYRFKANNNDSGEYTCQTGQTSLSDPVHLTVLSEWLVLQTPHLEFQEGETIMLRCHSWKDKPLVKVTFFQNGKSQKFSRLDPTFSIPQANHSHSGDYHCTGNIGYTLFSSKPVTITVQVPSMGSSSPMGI
Description: SPR (BIAcore 8K), biotinylated FcγRIIA (R167) on SA chip, antibody as analyte, 1:1 binding. The procedure: as §3

B1: mAb030 (antibody, V domains shown)
VH: DVQLQESGPGLVKPSQSLSLTCSVTGYSITSAYYWNWIRQFPGNKLECMGYISYDGSNYYNPSLKNRISITRDTSKNQFFLSLNSVTTEDTATYFCVRGGDYDDGGFAYWGQGTLVTVSA
VL: DIQMTQSPASLSASVGETVTITCRASGNIHNYLAWYQQKQGKSPQLLVYNAKTLADGVPSRFSGSGSETQYSLKINSLQPEDFGNYFCQHFWIIPYTFGGGTKLEIK
notes: Mouse hybridoma antibody
Take B1: in the assay with human BDCA2 [1], the “IC50 for inhibiting cytokine IFNα release, CpG-A stimulated human PBMC” value was 0.00476 nM. Moreover, the concentration giving a half-maximal response (EC50) came out at 0.293 nM with human BDCA2 [2] and 0.566 nM in the assay with cynomolgus BDCA2 [3].

B2: mAb027 (antibody, V domains shown)
VH: DVQLQESGPGLVKPSQSLSLTCSVTGYSITSAYYWNWVRQFPGNQLECMGYITYDGSNNYNPSLKNRISITRDTSKNQFFLKLNSVTTEDTATYYCVRGGDYDDGGFAYWGQGTLVTVSA
VL: DIQMTQSPASLSASVGETVTITCRASGNIHNYLAWYQQKQGKSPQLLVYNAKTLVDGVPSRFSGSGSGTEYSLKINSLQPEDFGIYFCQHFWIIPYTFGGGTKLEIR
notes: Mouse hybridoma antibody
Turning to B2, the “IC50 for inhibiting cytokine IFNα release, CpG-A stimulated human PBMC” value with human BDCA2 [1] was determined as 0.07 nM. The EC50 with human BDCA2 [2] was 0.302 nM; with cynomolgus BDCA2 [3], 0.68 nM.

B3: mAb020 (antibody, V domains shown)
VH: DVQLQESGPGLVKPSQSLSLTCSVTGYSIASGYYWNWIRQFPGNKLEWMGYISFDGTYNYNPSLKDRFSITRDTSKNQFFLKLNSVTTEDTATYYCARGVDYPNAIDWWGQGTSVTVSS
VL: DIVLTQSPASLAVSLGQRATISCRASESVSMHVTHLIHWYQQKPGQPPKLLIYVASNLESGVPARFSGSGSETDFTLNIHPVEEEDAATYFCQQSFEDPWTFGGGTKLEIK
notes: Mouse hybridoma antibody
For the molecule B3, in the assay with human BDCA2 [1], the “IC50 for inhibiting cytokine IFNα release, CpG-A stimulated human PBMC” value came to 0.00615 nM. Besides, the EC50 with human BDCA2 [2] came to 0.707 nM; in the assay with cynomolgus BDCA2 [3], 1.9 nM.

B4: mAb024 (antibody, V domains shown)
VH: EVQLVESGGDLVKPGGSLKLSCAASGFTFSSFGMSWVRQTPDKRLDWVATISSGDSYTYYPDSVKGRFSISRDNAKNTLYLQMSSLKSEDTAVYYCARQIYYDYAYYFDYWGQGTTLTVSS
VL: DIVLTQSPASLAVSLGQRATISCRASESVSFRSSHLMHWYRQKPGQPPKLLIYAASNLESGVPARFSGSGSETDFTLNIHPVEEEDAAAYFCQQSIEDPPTFGGGTKLEIK
notes: Mouse hybridoma antibody
In the case of B4, in the assay with human BDCA2 [1], the “IC50 for inhibiting cytokine IFNα release, CpG-A stimulated human PBMC” value was determined as 0.00274 nM. The EC50 was 0.343 nM in the assay with human BDCA2 [2] and 1.04 nM with cynomolgus BDCA2 [3].

B5: mAb022 (antibody, V domains shown)
VH: DVQLQESGPGLVKPSQSLSLTCSVTGYSITSGYYWNWIRQFPGNKLEWMGYISFDGTYNYNPSLKDRFSITRDTSKNQFFLKLNSVTTEDTATYYCARGVDYPKAMDWWGQGTSVTVSS
VL: DIVLTQSPASLAVSLGQRATISCRASESVSMHVTHLIHWYQQKPGQPPKLLIYVASNLESGVPARFSGSGSETDFTLNIHPVEEEDAATYFCQQSFEDPWTFGGGTKLEIK
notes: Mouse hybridoma antibody
With B5, in the assay with human BDCA2 [1], the “IC50 for inhibiting cytokine IFNα release, CpG-A stimulated human PBMC” value turned out to be 0.00623 nM. Besides, the results for the EC50 with human BDCA2 [2] and in the assay with cynomolgus BDCA2 [3] were 0.723 nM and 1.96 nM, respectively.

B6: Hu033-20 (antibody, human IgG1, kappa)
heavy: not shown
light: DIVMTQSPDSLAVSLGERATINCRASESVSFRTSHLMHWYQQKPGQPPKLLIYGASNLESGVPDRFSGSGSGTDFTLTISSLQAEDVAVYYCQQSIEDPPTFGGGTKVEIKRTVAAPSVFIFPPSDEQLKSGTASVVCLLNNFYPREAKVQWKVDNALQSGNSQESVTEQDSKDSTYSLSSTLTLSKADYEKHKVYACEVTHQGLSSPVTKSFNRGEC
notes: Humanized IgG1, wild-type Fc; also called Hu033-20(BM3)
For B6, the “EC50 (nM), inhibition of CpG-A stimulated IFNα release from human PBMC” value with human BDCA2 [4] was 0.01 nM. Besides, the EC50 was determined as 1.22 nM with cynomolgus BDCA2 [5] and 0.64 nM with human BDCA2 [6]. The Kd came to 0.268 nM with Recombinant Human BDCA2, 981 nM with human FcγRIIA (H167) and 578 nM with human FcγRIIA (R167). The koff in the assay with Recombinant Human BDCA2 worked out at 0.000149 s⁻¹; in the assay with human FcγRIIA (H167), 0.431 s⁻¹; in the assay with human FcγRIIA (R167) it was 0.838 s⁻¹. Moreover, the kon in the assay with Recombinant Human BDCA2 is 556000 M⁻¹ s⁻¹; with human FcγRIIA (H167) it was 439000 M⁻¹ s⁻¹; with human FcγRIIA (R167), 1.45e+06 M⁻¹ s⁻¹.

B7: Hu033-03 (antibody, human IgG1, kappa)
heavy: not shown
light: DIVLTQSPASLAVSPGQRATITCRASESVSFRTSHLMHWYQQKPGQPPKLLIYGASNLESGVPARFSGSGSETDFTLTINPVEAEDTANYFCQQSIEDPPTFGGGTKVEIKRTVAAPSVFIFPPSDEQLKSGTASVVCLLNNFYPREAKVQWKVDNALQSGNSQESVTEQDSKDSTYSLSSTLTLSKADYEKHKVYACEVTHQGLSSPVTKSFNRGEC
notes: Humanized IgG1, wild-type Fc; also called Hu033-03(BM3)
With B7, in the assay with human BDCA2 [4], the “EC50 (nM), inhibition of CpG-A stimulated IFNα release from human PBMC” value worked out at 0.01 nM. Also, the EC50 with cynomolgus BDCA2 [5] was 1.4 nM; with human BDCA2 [6], 0.5 nM. Moreover, the figures for the Kd in the assay with Recombinant Human BDCA2, in the assay with human FcγRIIA (H167) and in the assay with human FcγRIIA (R167) were 0.236 nM, 941 nM and 510 nM, respectively. Besides, the off-rate (koff) came to 0.000136 s⁻¹ with Recombinant Human BDCA2, 0.339 s⁻¹ in the assay with human FcγRIIA (H167) and 0.782 s⁻¹ in the assay with human FcγRIIA (R167). In addition, the figures for the kon with Recombinant Human BDCA2, in the assay with human FcγRIIA (H167) and with human FcγRIIA (R167) were 576000 M⁻¹ s⁻¹, 361000 M⁻¹ s⁻¹ and 1.53e+06 M⁻¹ s⁻¹, respectively.
